Legend:
Assay in all cases: cell-based or functional assay
[1] = biological target: HIV-1 Env of isolate SF162 (HIV-1) (UniProt P19550)
[2] = biological target: HIV-1 Env of isolate TRO.11 (HIV-1)
[3] = biological target: HIV-1 Env of isolate VLGCB3 (HIV-1)
[4] = biological target: HIV-1 Env of isolate MGRM-Chronic-B-012 (HIV-1)
[5] = biological target: HIV-1 Env of isolate MGRM-Chronic-B-020 (HIV-1)
[6] = biological target: HIV-1 Env of isolate MGRM-Chronic-B-010 (HIV-1)
[7] = biological target: HIV-1 Env of isolate THR0.18 (HIV-1)
[8] = biological target: HIV-1 Env of isolate SC422661.8 (HIV-1)
[9] = biological target: HIV-1 Env of isolate NL43 (HIV-1)
[10] = biological target: HIV-1 Env of pseudovirus MGRM-F1-021 (HIV-1)
[11] = biological target: HIV-1 Env of isolate 97ZA012 (HIV-1)
[12] = biological target: HIV-1 Env of isolate MGRM-Chronic-B-017 (HIV-1)
[13] = biological target: HIV-1 Env of isolate TRJ04551.58 (HIV-1)
[14] = biological target: HIV-1 Env of isolate 93IN905 (HIV-1)
[15] = biological target: HIV-1 envelope glycoprotein (Env) of isolate MG RM-AG-006 (HIV-1)
[16] = biological target: HIV-1 Env of isolate PVO.4 (HIV-1)
[17] = biological target: HIV-1 Env of isolate QH0692.42 (HIV-1)
[18] = biological target: HIV-1 Env of isolate MGRM-Chronic-B-018 (HIV-1)
[19] = biological target: HIV-1 Env of isolate MGRM-Chronic-B-011 (HIV-1)
[20] = biological target: HIV-1 Env of isolate MGRM-Chronic-B-023 (HIV-1)
[21] = biological target: HIV-1 envelope glycoprotein (Env) of isolate MGRM-AE-008 (HIV-1)
[22] = biological target: HIV-1 Env of isolate 98IN022 (HIV-1)
[23] = biological target: HIV-1 Env of isolate JRCSF (HIV-1) (UniProt P20871)
[24] = biological target: HIV-1 Env of isolate 93MW959 (HIV-1)
[25] = biological target: HIV-1 Env of isolate MGRM-Chronic-B-024 (HIV-1)
[26] = biological target: HIV-1 Env of isolate 92UG037 (pseudovirus) (HIV-1)
[27] = biological target: HIV-1 Env of isolate 92WR021 (pseudovirus) (HIV-1)
[28] = biological target: HIV-1 Env of isolate 93WR029 (pseudovirus) (HIV-1)
[29] = biological target: HIV-1 Env of isolate 94UG103 (pseudovirus) (HIV-1)
[30] = biological target: HIV-1 Env of isolate 92WR024 (pseudovirus) (HIV-1)
[31] = biological target: HIV-1 Env of isolate MGRM-AE-005 (pseudovirus) (HIV-1)
[32] = biological target: HIV-1 Env of isolate 93UG077 (pseudovirus) (HIV-1)
[33] = biological target: HIV-1 Env of isolate 92UG031 (pseudovirus) (HIV-1)
[34] = biological target: HIV-1 Env of isolate 92WR020 (pseudovirus) (HIV-1)
[35] = biological target: HIV-1 Env of isolate MGRM-AE-006 (pseudovirus) (HIV-1)
[36] = biological target: HIV-1 Env of isolate MGRM-AE-004 (pseudovirus) (HIV-1)

Chain of PGT-142 (4995_E20) (antibody) (VH): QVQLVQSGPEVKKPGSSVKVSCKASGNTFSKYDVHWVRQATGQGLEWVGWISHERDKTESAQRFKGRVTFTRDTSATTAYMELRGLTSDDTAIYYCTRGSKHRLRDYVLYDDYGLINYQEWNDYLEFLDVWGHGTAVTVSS
Chain of PGT-142 (4995_E20) (antibody) (VL): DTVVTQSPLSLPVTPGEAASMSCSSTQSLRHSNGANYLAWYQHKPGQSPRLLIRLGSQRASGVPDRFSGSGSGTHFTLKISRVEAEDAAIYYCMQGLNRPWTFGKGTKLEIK
Chain of PGT-144 (4970_K22) (antibody) (VH): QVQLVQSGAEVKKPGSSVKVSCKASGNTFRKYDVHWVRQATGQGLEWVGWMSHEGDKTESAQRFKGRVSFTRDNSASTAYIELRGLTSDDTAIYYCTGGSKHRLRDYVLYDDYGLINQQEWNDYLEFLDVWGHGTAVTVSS
Chain of PGT-144 (4970_K22) (antibody) (VL): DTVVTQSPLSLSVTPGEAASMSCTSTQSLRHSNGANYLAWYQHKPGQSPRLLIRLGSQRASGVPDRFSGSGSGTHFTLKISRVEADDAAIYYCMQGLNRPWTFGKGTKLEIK
Chain of PGT-141 (4964_G22; 4993_K13) (antibody) (VH): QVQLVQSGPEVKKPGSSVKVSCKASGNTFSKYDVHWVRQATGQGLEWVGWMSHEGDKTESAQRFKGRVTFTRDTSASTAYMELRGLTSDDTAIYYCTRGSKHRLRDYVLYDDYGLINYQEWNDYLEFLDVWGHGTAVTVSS
Chain of PGT-145 (4995_P16) (antibody) (VH): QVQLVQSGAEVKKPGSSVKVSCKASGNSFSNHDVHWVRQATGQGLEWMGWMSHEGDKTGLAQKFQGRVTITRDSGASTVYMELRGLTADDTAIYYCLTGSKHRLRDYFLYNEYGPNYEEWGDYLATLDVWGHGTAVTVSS
Chain of PGT-145 (4995_P16) (antibody) (VL): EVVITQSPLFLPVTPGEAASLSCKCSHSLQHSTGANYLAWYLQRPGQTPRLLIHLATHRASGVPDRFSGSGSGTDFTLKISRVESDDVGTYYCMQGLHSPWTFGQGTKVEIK
Chain of PGT-143 (4980_N08) (antibody) (VH): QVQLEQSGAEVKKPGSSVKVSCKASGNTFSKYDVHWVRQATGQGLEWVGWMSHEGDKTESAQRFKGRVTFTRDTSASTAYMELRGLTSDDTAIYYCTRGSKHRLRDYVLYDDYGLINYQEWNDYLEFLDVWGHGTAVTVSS
Chain of PGT-143 (4980_N08) (antibody) (VL): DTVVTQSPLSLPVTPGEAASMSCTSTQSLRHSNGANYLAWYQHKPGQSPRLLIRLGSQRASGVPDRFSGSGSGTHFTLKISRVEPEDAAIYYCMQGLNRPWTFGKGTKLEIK

| Substance | IC50, pseudovirus neutralization [1] [µg/mL] | IC50, pseudovirus neutralization [2] [µg/mL] | IC50, pseudovirus neutralization [3] [µg/mL] | IC50, pseudovirus neutralization [4] [µg/mL] | IC50, pseudovirus neutralization [5] [µg/mL] | IC50, pseudovirus neutralization [6] [µg/mL] | IC50, pseudovirus neutralization [7] [µg/mL] | IC50, pseudovirus neutralization [8] [µg/mL] | IC50, pseudovirus neutralization [9] [µg/mL] | IC50, pseudovirus neutralization [10] [µg/mL] | IC50, pseudovirus neutralization [11] [µg/mL] | IC50, pseudovirus neutralization [12] [µg/mL] | IC50, pseudovirus neutralization [13] [µg/mL] | IC50, pseudovirus neutralization [14] [ng/mL] | IC50 [15] [µg/mL] | IC50, pseudovirus neutralization [16] [µg/mL] | IC50, pseudovirus neutralization [17] [µg/mL] | IC50, pseudovirus neutralization [18] [µg/mL] | IC50, pseudovirus neutralization [19] [µg/mL] | IC50, pseudovirus neutralization [20] [µg/mL] | further results |
| --- | --- | --- | --- | --- | --- | --- | --- | --- | --- | --- | --- | --- | --- | --- | --- | --- | --- | --- | --- | --- | --- |
| PGT-141 (4964_G22; 4993_K13) (antibody) | > 50 | 0.383 | > 50 | > 50 | > 50 | > 50 | 0.007 | 1.66 | > 50 | > 50 | > 50 | 0.147 | > 50 | 1 | > 50 | 0.113 | > 50 | 0.572 | 2.24 | 0.318 | IC50 [21]: 0.101 µg/mL; IC50, pseudovirus neutralization [22]: 1 ng/mL; IC50, pseudovirus neutralization [23]: 9 ng/mL; IC50, pseudovirus neutralization [24]: 0.003 µg/mL; IC50, pseudovirus neutralization [25]: 0.011 µg/mL |
| PGT-142 (4995_E20) (antibody) | > 50 | 0.27 | > 50 | > 50 | > 50 | > 50 | 0.012 | 3.15 | > 50 | > 50 | > 50 | 0.076 | > 50 | 1 | > 50 | 0.066 | > 50 | 0.323 | 0.994 | 0.486 | IC50 [21]: 0.08 µg/mL; IC50, pseudovirus neutralization [22]: 1 ng/mL; IC50, pseudovirus neutralization [23]: 10 ng/mL; IC50, pseudovirus neutralization [24]: 0.001 µg/mL; IC50, pseudovirus neutralization [25]: 0.005 µg/mL |
| PGT-145 (4995_P16) (antibody) | > 50 | 0.044 | > 50 | 9.66 | > 50 | > 50 | 0.013 | 0.079 | 0.006 | 8.04 | 0.915 | 0.054 | > 50 | 2 | 6.6 | 0.299 | > 50 | 0.013 | 0.206 | 0.009 | IC50 [21]: 1.46 µg/mL; IC50, pseudovirus neutralization [22]: 5 ng/mL; IC50, pseudovirus neutralization [23]: 2 ng/mL; IC50, pseudovirus neutralization [24]: 1.2 µg/mL; IC50, pseudovirus neutralization [25]: 0.018 µg/mL |
| PGT-143 (4980_N08) (antibody) | > 50 | 0.219 | > 50 | > 50 | > 50 | > 50 | 0.016 | 2.02 | > 50 | > 50 | > 50 | 0.145 | > 50 | 2 | > 50 | 0.162 | > 50 | 0.377 | 1.56 | 0.236 | IC50 [21]: 0.135 µg/mL; IC50, pseudovirus neutralization [22]: 1 ng/mL; IC50, pseudovirus neutralization [23]: 7 ng/mL; IC50, pseudovirus neutralization [24]: 0.002 µg/mL; IC50, pseudovirus neutralization [25]: 0.01 µg/mL |
| PGT-144 (4970_K22) (antibody) | > 50 | 4.73 | > 50 | > 50 | > 50 | > 50 | 0.029 | > 50 | > 50 | > 50 | > 50 | 0.712 | > 50 | 132 | > 50 | 0.535 | > 50 | 2.4 | 5.64 | > 50 | IC50 [21]: 3.55 µg/mL; IC50, pseudovirus neutralization [22]: 171 ng/mL; IC50, pseudovirus neutralization [23]: 149 ng/mL; IC50, pseudovirus neutralization [24]: 0.332 µg/mL; IC50, pseudovirus neutralization [25]: 0.04 µg/mL |
| VRC01 (antibody) | 0.421 | 0.186 | 0.108 | 1.03 | 0.424 | 0.156 | 2.46 | 0.179 | 0.1 | 0.039 | 0.088 | 0.141 | 0.06 | 138 | 0.344 | 0.218 | 1.19 | 0.328 | 0.587 | 0.275 | IC50 (µg/mL), single-round pseudovirus neutralization [26]: 0.245 µg/mL; IC50 (µg/mL), single-round pseudovirus neutralization [27]: 0.066 µg/mL; IC50 (µg/mL), single-round pseudovirus neutralization [28]: 1.57 µg/mL; IC50 (µg/mL), single-round pseudovirus neutralization [29]: 0.285 µg/mL; IC50 (µg/mL), single-round pseudovirus neutralization [30]: 0.327 µg/mL; IC50 (µg/mL), single-round pseudovirus neutralization [31]: 0.029 µg/mL; IC50 (µg/mL), single-round pseudovirus neutralization [32]: 0.097 µg/mL; IC50 (µg/mL), single-round pseudovirus neutralization [33]: 0.469 µg/mL; IC50 (µg/mL), single-round pseudovirus neutralization [34]: 0.13 µg/mL; IC50 (µg/mL), single-round pseudovirus neutralization [35]: 4.65 µg/mL; IC50 [21]: 1.72 µg/mL; IC50, pseudovirus neutralization [22]: 342 ng/mL; IC50, pseudovirus neutralization [23]: 164 ng/mL; IC50, pseudovirus neutralization [24]: 0.053 µg/mL; IC50, pseudovirus neutralization [25]: 0.377 µg/mL; IC50 (µg/mL), single-round pseudovirus neutralization [36]: 0.187 µg/mL |

Source: US20240132578A1
